According to patent publication US20210115130A1 (Innovent, published 2021):

T1: IL-23 (R&D Systems, Catalog No. 1290-IL-500/CF) (UniProt Q9NPF7 20-189; P29460 23-328)
T1 sequence (looked up) 1: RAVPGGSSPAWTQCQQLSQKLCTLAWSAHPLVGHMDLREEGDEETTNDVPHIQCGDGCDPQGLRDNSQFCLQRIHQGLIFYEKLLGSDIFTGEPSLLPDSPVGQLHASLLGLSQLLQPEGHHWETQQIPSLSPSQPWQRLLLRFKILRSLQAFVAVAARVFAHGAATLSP
T1 sequence (looked up) 2: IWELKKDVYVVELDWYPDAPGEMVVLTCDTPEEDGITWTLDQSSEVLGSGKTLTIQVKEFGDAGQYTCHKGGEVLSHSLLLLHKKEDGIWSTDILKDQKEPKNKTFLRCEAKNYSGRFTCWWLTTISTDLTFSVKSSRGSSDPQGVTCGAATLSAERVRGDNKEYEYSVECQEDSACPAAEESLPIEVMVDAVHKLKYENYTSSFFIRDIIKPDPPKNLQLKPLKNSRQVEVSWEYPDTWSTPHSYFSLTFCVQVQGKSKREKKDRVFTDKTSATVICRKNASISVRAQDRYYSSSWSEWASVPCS

T2: human IL-12p40 (ACRO Biosystems, Cat #NK2-H52H7) (human, UniProt P29460 23-328)
T2 construct: Bought protein
T2 sequence (looked up): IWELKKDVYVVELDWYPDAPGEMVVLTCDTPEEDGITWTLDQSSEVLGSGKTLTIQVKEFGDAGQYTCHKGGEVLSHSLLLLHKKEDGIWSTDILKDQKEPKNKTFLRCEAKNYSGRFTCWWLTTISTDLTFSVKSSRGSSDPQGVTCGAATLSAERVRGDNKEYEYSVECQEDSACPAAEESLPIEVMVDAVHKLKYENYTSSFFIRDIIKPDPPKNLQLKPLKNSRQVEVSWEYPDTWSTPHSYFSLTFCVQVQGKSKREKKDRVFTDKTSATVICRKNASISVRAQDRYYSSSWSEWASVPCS

T3: human IL-12 (ACRO Biosystems, Cat #IL2-H4210) (human, UniProt P29459 23-219; P29460 23-328)
T3 construct: Bought protein
T3 sequence (looked up) 1: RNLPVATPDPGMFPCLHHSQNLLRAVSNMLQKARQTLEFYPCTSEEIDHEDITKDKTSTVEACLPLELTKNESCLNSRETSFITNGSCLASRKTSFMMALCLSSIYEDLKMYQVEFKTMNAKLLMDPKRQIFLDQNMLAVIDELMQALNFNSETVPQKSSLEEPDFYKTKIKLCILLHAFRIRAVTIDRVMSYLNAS
T3 sequence (looked up) 2: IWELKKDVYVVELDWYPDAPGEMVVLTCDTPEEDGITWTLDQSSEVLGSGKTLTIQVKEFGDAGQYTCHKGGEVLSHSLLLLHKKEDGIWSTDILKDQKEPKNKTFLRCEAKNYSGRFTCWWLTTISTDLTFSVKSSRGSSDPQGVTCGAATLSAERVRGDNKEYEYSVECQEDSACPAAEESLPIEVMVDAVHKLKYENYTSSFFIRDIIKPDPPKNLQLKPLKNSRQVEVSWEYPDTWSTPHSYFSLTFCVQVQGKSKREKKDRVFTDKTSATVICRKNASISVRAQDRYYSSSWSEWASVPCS

T4: human IL23 protein (human IL12p40 - linker - human IL23p19 - His tag) (human, UniProt P29460 23-328; Q9NPF7 21-189)
T4 construct: range 23-328;range 21-189; Single-chain fusion expressed in Expi293 cells; also called IL-23 antigen
T4 sequence: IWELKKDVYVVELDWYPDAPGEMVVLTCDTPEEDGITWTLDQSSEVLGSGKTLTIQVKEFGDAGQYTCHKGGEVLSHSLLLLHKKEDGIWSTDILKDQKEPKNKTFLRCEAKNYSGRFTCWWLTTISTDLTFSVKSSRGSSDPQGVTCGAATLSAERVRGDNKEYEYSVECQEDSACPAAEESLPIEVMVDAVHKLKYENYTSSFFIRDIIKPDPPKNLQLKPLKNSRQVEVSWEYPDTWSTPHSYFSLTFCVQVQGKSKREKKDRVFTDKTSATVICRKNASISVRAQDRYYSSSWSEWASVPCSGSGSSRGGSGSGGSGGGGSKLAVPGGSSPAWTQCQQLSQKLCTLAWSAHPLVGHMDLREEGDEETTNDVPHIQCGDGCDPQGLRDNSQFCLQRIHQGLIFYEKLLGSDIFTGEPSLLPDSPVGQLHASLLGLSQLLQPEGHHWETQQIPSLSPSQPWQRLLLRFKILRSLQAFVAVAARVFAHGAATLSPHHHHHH


Legend:
[1] = molecular target: cynomolgus monkey IL23 protein (cynomolgus IL12p40 - linker - cynomolgus IL23p19 - His tag) (cynomolgus monkey); test: ForteBio BLI, antibody on AHQ sensor, 1:1 model
Description: (§1) The ForteBio affinity assay was performed according to the prior art (Estep, P, et al., High throughput solution based measurement of antibody-antigen affinity and epitope binning MAbs, 2013.5(2): p. 270-8). Briefly, the sensor was equilibrated offline in an assay buffer for […], and was equilibrated online for 60 s to establish a baseline. The purified antibodies obtained as described above were loaded online onto an AHQ sensor (ForteBio) for the ForteBio affinity assay. The sensor with the loaded antibodies was then exposed to 100 nM […] antigens for […] before transferring the sensor to the assay buffer for […] of dissociation to measure the dissociation rate. The kinetic analysis was performed using a 1:1 binding model.

[2] = molecular target: T1, IL-23 (R&D Systems, Catalog No. …); test: cell-based or functional assay
[3] = molecular target: T2, human IL-12p40 (ACRO Biosystems, Cat …); test: ForteBio BLI, antibody loaded on AHQ sensor
Description: as §1
(§2) The equilibrium dissociation constant (KD) for binding of the above 17D1 humanized antibody and 17D1-YTE antibody of the present invention to human interleukin protein human IL-12 (ACRO Biosystems, Cat #IL2-H4210) or human IL-12p40 (ACRO Biosystems, Cat #NK2-H52H7) of the same family was measured by biological optical interferometry (ForteBio) (Table 18).

[4] = molecular target: T3, human IL-12 (ACRO Biosystems, Cat …); test: ForteBio BLI, antibody loaded on AHQ sensor
Description: as §1, §2

[5] = molecular target: T4, human IL23 protein (human IL12p40 - …); test: ForteBio BLI, antibody on AHQ sensor, 1:1 model
Description: The equilibrium dissociation constant (KD) of the above 17D1 humanized antibody and 17D1-YTE of the present invention to human IL-23p19 was measured by biological optical interferometry (ForteBio).
as §1

[6] = molecular target: T5, human FcRn (Acro, Catalog No. FCM-H5286) (human, UniProt P55899 24-297; P61769 21-119); test: ForteBio Octet RED96 BLI, biotinylated antibody on SA sensor, FcRn in solution, 1:1 model
T5 construct: Bought protein
T5 sequence (P55899 24-297 limits assumed, chain 1 of 2): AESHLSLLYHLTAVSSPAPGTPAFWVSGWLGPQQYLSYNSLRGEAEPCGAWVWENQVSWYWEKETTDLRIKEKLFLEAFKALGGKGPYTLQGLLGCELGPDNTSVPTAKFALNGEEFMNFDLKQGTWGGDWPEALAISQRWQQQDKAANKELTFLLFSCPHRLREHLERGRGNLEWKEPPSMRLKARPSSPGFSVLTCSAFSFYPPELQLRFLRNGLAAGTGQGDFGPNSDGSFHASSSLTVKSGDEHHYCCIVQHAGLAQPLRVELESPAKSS
T5 sequence (P61769 21-119 limits assumed, chain 2 of 2): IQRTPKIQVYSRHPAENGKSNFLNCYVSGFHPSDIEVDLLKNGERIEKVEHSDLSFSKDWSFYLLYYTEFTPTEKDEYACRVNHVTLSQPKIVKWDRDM
Description: First, the 17D1 humanized antibody, 17D1-YTE, and Gmab (guselkumab) prepared as described above were labeled with biotin, with the molar ratio of antibody to biotin being 1:3. The biotin was removed using a desalting column and the labeled samples were re-measured and stored for later use.
(§3) An appropriate amount of SA sensor (Fortebio, Catalog No. 18-5019) was soaked in the analysis buffer for 30 min. The biotinylated 17D1 humanized antibody, 17D1-YTE, and Gmab were diluted to 100 nM, and human FcRn (Acro, Catalog No. FCM-H5286) was serially two-fold diluted to 5 concentrations (5, 2.5, 1.25, 0.625, 0.3125 μg/mL). The sensor was first equilibrated in the analysis buffer for 120 s. Then the biotinylated antibodies were loaded on the SA sensor for 100 s of immobilization, and the sensor was equilibrated for another 120 s after immobilization. After the baseline was stabilized, the serially diluted FcRns binded to the sensors with the same antibody immobilization level. After 100 s for binding, the sensors were equilibrated in analysis buffer for 120 s to measure the binding and dissociation. The experimental data were analyzed using a 1:1 model.

[7] = molecular target: T5, human FcRn (Acro, Catalog No. FCM-H5286); test: ForteBio Octet RED96 BLI, biotinylated antibody on SA sensor
Description: In this assay, the ForteBio Octet RED96 System was used to detect the kinetic constant (KD) for binding of 17D1 humanized antibody and 17D1-YTE to human FcRn (Acro, Catalog No. FCM-H5286). The affinity of 17D1-YTE to human FcRn was three times those of 17D1 humanized antibody and reference antibody Gmab.
as §3

| Binder | Kd [1] [nM] | Response [1] | koff [1] [s⁻¹] | kon [1] [M⁻¹ s⁻¹] | IC50 (inhibition of IL-23-induced IL-17 secretion in mouse splenic lymphocytes, IL-17 ELISA) [2] [µg/mL] | binding result [3] | binding result [4] | Kd [5] [nM] | koff [5] [s⁻¹] | kon [5] [M⁻¹ s⁻¹] | Kd [6] [nM] | koff [6] [s⁻¹] | kon [6] [M⁻¹ s⁻¹] | fold affinity against 17D1 humanized antibody and Gmab [7] [fold] |
| --- | --- | --- | --- | --- | --- | --- | --- | --- | --- | --- | --- | --- | --- | --- |
| 17D1 humanized antibody (antibody, human IgG1, kappa, Biotinylated for the FcRn assay; also called humanized antibody 17D1; copies: 2 + 2) heavy: not shown light: DIQMTQSPSSLSASVGDRVTITCRASQSISDYLHWYQQKPGKAPKLLIKYASQSMSGVPSRFSGSGSGSDFTLTISSLQPEDFATYYCQQGHSFPFTFGQGTKLEIKRTVAAPSVFIFPPSDEQLKSGTASVVCLLNNFYPREAKVQWKVDNALQSGNSQESVTEQDSKDSTYSLSSTLTLSKADYEKHKVYACEVTHQGLSSPVTKSFNRGEC | 1.67 | 0.215 | 8.44e-05 | 50400 | 0.113 | no binding (tested: 100 nM) | no binding (tested: 100 nM) | 1.75 | 0.000164 | 93700 | 12.3 | 0.0141 | 1.15e+06 |  |
| 17D1-YTE (antibody, human IgG1, kappa, Biotinylated for the FcRn assay; also called 17D1-YTE antibody; copies: 2 + 2) heavy: QVQLVQSGAEVKKPGASVKVSCKASGYTFTSYLMHWVRQAPGQGLEWMGYINPYNEGTNYAQKFQGRVTMTRDTSISTAYMELSRLRSDDTAVYYCARNWDLPYWGQGTLVTVSSASTKGPSVFPLAPSSKSTSGGTAALGCLVKDYFPEPVTVSWNSGALTSGVHTFPAVLQSSGLYSLSSVVTVPSSSLGTQTYICNVNHKPSNTKVDKKVEPKSCDKTHTCPPCPAPELLGGPSVFLFPPKPKDTLYITREPEVTCVVVDVSHEDPEVKFNWYVDGVEVHNAKTKPREEQYNSTYRVVSVLTVLHQDWLNGKEYKCKVSNKALPAPIEKTISKAKGQPREPQVYTLPPSRDELTKNQVSLTCLVKGFYPSDIAVEWESNGQPENNYKTTPPVLDSDGSFFLYSKLTVDKSRWQQGNVFSCSVMHEALHNHYTQKSLSLSPG light: DIQMTQSPSSLSASVGDRVTITCRASQSISDYLHWYQQKPGKAPKLLIKYASQSMSGVPSRFSGSGSGSDFTLTISSLQPEDFATYYCQQGHSFPFTFGQGTKLEIKRTVAAPSVFIFPPSDEQLKSGTASVVCLLNNFYPREAKVQWKVDNALQSGNSQESVTEQDSKDSTYSLSSTLTLSKADYEKHKVYACEVTHQGLSSPVTKSFNRGEC | 0.37 | 0.207 | 2.16e-05 | 58400 | 0.114 | no binding (tested: 100 nM) | no binding (tested: 100 nM) | 0.611 | 5.69e-05 | 93100 | 3.34 | 0.0033 | 988000 | 3 |
| guselkumab (antibody) chain 1: not shown chain 2: not shown | 0.941 | 0.284 | 5.8e-05 | 61600 | 0.124 |  |  | 1.04 | 0.00012 | 115000 | 13.2 | 0.0148 | 1.12e+06 |  |
